# Measured values reported in patent US20260002156.
# B1: ADAM10 on the surface of HCC cells (HepG2) (protein)
# chain: TTSAEKNTCQLYIQTDHLFFKYYGTREAVIAQISSHVKAIDTIYQTTDFSGIRNISFMVKRIRINTTADEKDPTNPFRFPNIGVEKFLELNSEQNHDDYCLAYVFTDRDFDDGVLGLAWVGAPSGSSGGICEKSKLYSDGKKKSLNTGIITVQNYGSHVPPKVSHITFAHEVGHNFGSPHDSGTECTPGESKNLGQKENGNYIMYARATSGDKLNNNKFSLCSIRNISQVLEKKRNNCFVESGQPICGNGMVEQGEECDCGYSDQCKDECCFDANQPEGRKCKLKPGKQCSPSQGPCCTAQCAFKSKSEKCRDDSDCAREGICNGFTALCPASDPKPNFTDCNRHTQVCINGQCAGSICEKYGLEECTCASSDGKDDKELCHVCCMKKMDPSTCASTGSVQWSRHFSGRTITLQPGSPCNDFRGYCDVFMRCRLVDADGPLARLKKAIFSPELYENIAEWIVAHWWAVLLMGIALIMLMAGFIKICSVHTPSSNPKLPPPKPLPGTLKRRRPPQPIQQPQRQRPRESYQMGHMRR
# B2: recombinant human ADAM10 (rhADAM10) (protein)
# chain: TTSAEKNTCQLYIQTDHLFFKYYGTREAVIAQISSHVKAIDTIYQTTDFSGIRNISFMVKRIRINTTADEKDPTNPFRFPNIGVEKFLELNSEQNHDDYCLAYVFTDRDFDDGVLGLAWVGAPSGSSGGICEKSKLYSDGKKKSLNTGIITVQNYGSHVPPKVSHITFAHEVGHNFGSPHDSGTECTPGESKNLGQKENGNYIMYARATSGDKLNNNKFSLCSIRNISQVLEKKRNNCFVESGQPICGNGMVEQGEECDCGYSDQCKDECCFDANQPEGRKCKLKPGKQCSPSQGPCCTAQCAFKSKSEKCRDDSDCAREGICNGFTALCPASDPKPNFTDCNRHTQVCINGQCAGSICEKYGLEECTCASSDGKDDKELCHVCCMKKMDPSTCASTGSVQWSRHFSGRTITLQPGSPCNDFRGYCDVFMRCRLVDADGPLARLKKAIFSPELYENIAE
# Molecular target: T1, fluorogenic peptide substrate to ADAM10 (Mca-PLAQAV-Dpa-RSSR)
# T1 chain: PLAQAVXRSSR
protein,measurement,value
B1,fluorescence intensity (fluorogenic peptide cleavage assay),"after incubation with HCC cells, the fluorogenic peptide significantly increased the fluorescence intensity, stronger than the recombinant human ADAM10 (rhADAM10) which serves as a positive control"
B2,fluorescence intensity (fluorogenic peptide cleavage assay),the recombinant human ADAM10 (rhADAM10) which serves as a positive control
